Experimental data taken from patent US20240174727A1, “LONG-ACTING NATRIURETIC PEPTIDES AND USES THEREOF” (Eli Lilly and Company, priority 2022, published 2024).
Positions count from the first letter of the chain named. Numbered stars: 1 amine (or outer) side, 2 acyl side, 3 side chain; on linkers, the order of the positions; unused ones are H or OH. Bridge positions count the residues as written; N and C are the ends. Square brackets hold non-standard residues; d marks the D form. * marks the point of attachment. thioacetal = thioacetal linkage between two cysteines (intrachain bond at the bracketed Cys); C20 diacid = O=C(O)CCCCCCCCCCCCCCCCCCC(=O)*; γGlu = O=C(O)[C@H](CCC(=O)[*:2])N[*:1]; Orn = NCCC[C@H](N)C(=O)O; Dap = NC[C@H](N)C(=O)O; βAla = NCCC(=O)O

T1: human NPRA (human, UniProt P16066 33-1061)
T1 sequence (looked up): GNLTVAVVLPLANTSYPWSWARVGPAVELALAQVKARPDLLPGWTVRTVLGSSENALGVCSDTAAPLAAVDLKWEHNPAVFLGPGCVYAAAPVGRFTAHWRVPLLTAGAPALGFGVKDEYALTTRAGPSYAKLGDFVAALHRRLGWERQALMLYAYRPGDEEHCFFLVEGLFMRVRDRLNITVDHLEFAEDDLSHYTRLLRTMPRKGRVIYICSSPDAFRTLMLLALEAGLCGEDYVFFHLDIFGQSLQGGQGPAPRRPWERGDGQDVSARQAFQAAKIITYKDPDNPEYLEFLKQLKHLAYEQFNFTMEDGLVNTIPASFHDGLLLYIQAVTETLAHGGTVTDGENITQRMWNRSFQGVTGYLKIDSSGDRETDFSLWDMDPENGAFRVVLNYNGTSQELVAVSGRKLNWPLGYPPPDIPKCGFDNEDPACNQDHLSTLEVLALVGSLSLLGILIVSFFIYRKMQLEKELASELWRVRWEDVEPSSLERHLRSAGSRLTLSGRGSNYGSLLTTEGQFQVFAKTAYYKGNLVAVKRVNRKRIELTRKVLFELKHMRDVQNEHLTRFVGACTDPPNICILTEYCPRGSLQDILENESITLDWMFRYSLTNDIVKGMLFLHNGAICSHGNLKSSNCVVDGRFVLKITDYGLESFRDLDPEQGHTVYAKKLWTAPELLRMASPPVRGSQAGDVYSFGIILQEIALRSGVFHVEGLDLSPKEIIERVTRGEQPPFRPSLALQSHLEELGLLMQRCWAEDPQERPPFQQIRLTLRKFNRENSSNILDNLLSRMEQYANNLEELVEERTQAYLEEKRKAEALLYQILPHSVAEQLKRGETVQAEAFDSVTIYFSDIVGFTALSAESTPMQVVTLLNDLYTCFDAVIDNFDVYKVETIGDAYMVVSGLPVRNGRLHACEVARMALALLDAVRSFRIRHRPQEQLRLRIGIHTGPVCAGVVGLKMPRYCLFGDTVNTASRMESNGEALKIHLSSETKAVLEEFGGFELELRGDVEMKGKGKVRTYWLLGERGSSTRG

T2: rat NPRA (rat, UniProt P18910 29-1057)
T2 sequence (looked up): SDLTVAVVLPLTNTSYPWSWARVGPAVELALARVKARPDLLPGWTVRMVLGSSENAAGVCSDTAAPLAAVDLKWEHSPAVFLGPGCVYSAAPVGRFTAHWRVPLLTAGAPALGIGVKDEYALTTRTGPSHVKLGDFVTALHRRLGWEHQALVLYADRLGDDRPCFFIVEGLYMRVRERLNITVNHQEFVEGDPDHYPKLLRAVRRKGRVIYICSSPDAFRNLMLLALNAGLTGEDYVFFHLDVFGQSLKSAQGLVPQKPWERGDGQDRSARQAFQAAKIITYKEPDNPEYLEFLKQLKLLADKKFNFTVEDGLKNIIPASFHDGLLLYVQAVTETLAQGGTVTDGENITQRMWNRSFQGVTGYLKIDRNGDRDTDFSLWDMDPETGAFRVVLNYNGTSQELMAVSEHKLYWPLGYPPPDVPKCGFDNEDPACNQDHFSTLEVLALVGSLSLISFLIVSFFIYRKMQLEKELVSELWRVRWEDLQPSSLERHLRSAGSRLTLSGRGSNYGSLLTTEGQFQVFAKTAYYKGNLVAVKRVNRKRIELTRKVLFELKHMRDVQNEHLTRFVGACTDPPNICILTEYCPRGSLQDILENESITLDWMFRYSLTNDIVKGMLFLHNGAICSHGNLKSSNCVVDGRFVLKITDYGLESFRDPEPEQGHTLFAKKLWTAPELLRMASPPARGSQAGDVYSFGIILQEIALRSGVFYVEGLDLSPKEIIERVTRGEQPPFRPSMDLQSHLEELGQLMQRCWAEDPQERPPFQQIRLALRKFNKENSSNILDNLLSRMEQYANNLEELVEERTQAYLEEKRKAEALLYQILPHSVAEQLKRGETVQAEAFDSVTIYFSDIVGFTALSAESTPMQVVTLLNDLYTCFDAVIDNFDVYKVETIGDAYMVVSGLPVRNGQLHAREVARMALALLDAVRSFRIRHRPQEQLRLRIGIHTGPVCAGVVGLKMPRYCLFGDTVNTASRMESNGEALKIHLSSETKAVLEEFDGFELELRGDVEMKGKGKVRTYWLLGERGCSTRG

B1: HOOC-(CH2)18-CO-(γGlu)-EKEKEKG-(AEEA)6-EKPRSS[CFGKRIDRIGHYSGLGC]PSFRHSGSPSSGAPPPSG-NH2 (peptide)
peptide: EKPRSSCFGKRIDRIGHYSGLGCPSFRHSGSPSSGAPPPSG
modifications: N-terminus acylated with HOOC-(CH2)18-CO-(γGlu)-; (AEEA)6 after EKEKEKG; thioacetal linkage between the two bracketed Cys; C-terminal amide
B2: HOOC-(CH2)18-CO-(γGlu)-EKEKEKG-PEG24-EKPRSS[CFGKRIDRIGHQSGLGC]PSFRHSGSPSSGAPPPSG-NH2 (peptide)
peptide: B1 peptide with Y18Q
modifications: N-terminus acylated with HOOC-(CH2)18-CO-(γGlu)-; PEG24 after EKEKEKG; thioacetal linkage between the two bracketed Cys; C-terminal amide
B3: HOOC-(CH2)18-CO-(γGlu)-EKEKEKG-PEG24-EKPRSS[CFGKRIDRIGHYSGLGC]PSFRHSGSPSSGAPPPSG-NH2 (peptide)
peptide: B1 peptide
modifications: N-terminus acylated with HOOC-(CH2)18-CO-(γGlu)-; PEG24 after EKEKEKG; thioacetal linkage between the two bracketed Cys; C-terminal amide
B4: HOOC-(CH2)18-CO-(γGlu)-EKEKEKG-(AEEA)8-EKPRSS[CFGKRIDRIGHYSGLGC]PSFRHSGSPSSGAPPPSG-NH2 (peptide)
peptide: B1 peptide
modifications: N-terminus acylated with HOOC-(CH2)18-CO-(γGlu)-; (AEEA)8 after EKEKEKG; thioacetal linkage between the two bracketed Cys; C-terminal amide
B5: HOOC-(CH2)18-CO-(γGlu)-EKEKEKG-PEG24-EKPRSS[CFGKGIDRIGHQSGLGC]PSFRHSGSPSSGAPPPSG-NH2 (peptide)
peptide: B1 peptide with R11G, Y18Q
modifications: N-terminus acylated with HOOC-(CH2)18-CO-(γGlu)-; PEG24 after EKEKEKG; thioacetal linkage between the two bracketed Cys; C-terminal amide
B6: HOOC-(CH2)18-CO-(γGlu)-EKEKEKG-(AEEA)6-S-4Pal-RRSS[CFGKRIDRIGHYSGLGC]PSFRHGSGSPSSGAPPPSG-NH2 (peptide)
peptide: SXRRSSCFGKRIDRIGHYSGLGCPSFRHGSGSPSSGAPPPSG
modifications: N-terminus acylated with HOOC-(CH2)18-CO-(γGlu)-; (AEEA)6 after EKEKEKG; 4Pal; thioacetal linkage between the two bracketed Cys; C-terminal amide
B7: HOOC-(CH2)18-CO-(γGlu)-EKEKEKG-(AEEA)6-EK-βAla-RSS[CFGKRIDRIGHQSGLGC]PSFRHGSPSSGAPPPS-NH2 (peptide)
peptide: EKXRSSCFGKRIDRIGHQSGLGCPSFRHGSPSSGAPPPS
modifications: N-terminus acylated with HOOC-(CH2)18-CO-(γGlu)-; (AEEA)6 after EKEKEKG; βAla; thioacetal linkage between the two bracketed Cys; C-terminal amide
B8: HOOC-(CH2)18-CO-(γGlu)-EKEKEKG-(AEEA)8-EK-βAla-RSS[CFGKRIDRIGHQSGLGC]PSFRHGSPSSGAPPPS-NH2 (peptide)
peptide: B7 peptide
modifications: N-terminus acylated with HOOC-(CH2)18-CO-(γGlu)-; (AEEA)8 after EKEKEKG; βAla; thioacetal linkage between the two bracketed Cys; C-terminal amide
B9: HOOC-(CH2)18-CO-(γGlu)-EKEKEKG-PEG24-EKPRSS[CFGKRIDRIGHYSGLGC]PSFRHGSPSSGAPPPS-NH2 (peptide)
peptide: B7 peptide with X3P, Q18Y
modifications: N-terminus acylated with HOOC-(CH2)18-CO-(γGlu)-; PEG24 after EKEKEKG; thioacetal linkage between the two bracketed Cys; C-terminal amide
B10: HOOC-(CH2)18-CO-(γGlu)-EKEKEKG-(AEEA)6-EKPRSS[CFGKRIDRIGHYSGLGC]PSFRHGSPSSGAPPPS-NH2 (peptide)
peptide: B7 peptide with X3P, Q18Y
modifications: N-terminus acylated with HOOC-(CH2)18-CO-(γGlu)-; (AEEA)6 after EKEKEKG; thioacetal linkage between the two bracketed Cys; C-terminal amide
B11: HOOC-(CH2)18-CO-(γGlu)-EKEKEKG-(AEEA)8-EKPRSS[CFGKRIDRIGHYSGLGC]PSFRHGSPSSGAPPPS-NH2 (peptide)
peptide: B7 peptide with X3P, Q18Y
modifications: N-terminus acylated with HOOC-(CH2)18-CO-(γGlu)-; (AEEA)8 after EKEKEKG; thioacetal linkage between the two bracketed Cys; C-terminal amide
B12: HOOC-(CH2)18-CO-(γGlu)-EKEKEKG-PEG24-S-4Pal-RRSS[CFGKRIDRIGHYSGLGC]PSFRHGGKSSGAPPPS-NH2 (peptide)
peptide: SXRRSSCFGKRIDRIGHYSGLGCPSFRHGGKSSGAPPPS
modifications: N-terminus acylated with HOOC-(CH2)18-CO-(γGlu)-; PEG24 after EKEKEKG; 4Pal; thioacetal linkage between the two bracketed Cys; C-terminal amide
B13: HOOC-(CH2)18-CO-(γGlu)-EKEKEKG-PEG24-S-4Pal-RRSS[CFGKRIDRIGHYSGLGC]PSFRHGSPSSGAPPPS-NH2 (peptide)
peptide: B12 peptide with G30S, K31P
modifications: N-terminus acylated with HOOC-(CH2)18-CO-(γGlu)-; PEG24 after EKEKEKG; 4Pal; thioacetal linkage between the two bracketed Cys; C-terminal amide
B14: HOOC-(CH2)18-CO-(γGlu)-EKEKEKG-(AEEA)6-S-4Pal-RRSS[CFGKRIDRIGHYSGLGC]PSFRHGSPSSGAPPPS-NH2 (peptide)
peptide: B12 peptide with G30S, K31P
modifications: N-terminus acylated with HOOC-(CH2)18-CO-(γGlu)-; (AEEA)6 after EKEKEKG; 4Pal; thioacetal linkage between the two bracketed Cys; C-terminal amide

How the values were obtained:
human NPRA = molecular target: T1, human NPRA; assay: cell-based or functional assay
rat NPRA = molecular target: T2, rat NPRA; assay: cell-based or functional assay

Row | Binder | cGMP Assay (EC50, pM) w/BSA, hNPRA (human NPRA) [pM] | cGMP Assay (EC50, pM) w/Casein, hNPRA (human NPRA) [pM] | cGMP Assay (EC50, pM) w/BSA, rNPRA (rat NPRA) [pM] | cGMP Assay (EC50, pM) w/Casein, rNPRA (rat NPRA) [pM]
1 | B1 | 8970 | 745 | 205000 | 3830
2 | B2 | 5300 | 704 | 260000 | 9390
3 | B3 | 3980 | 656 | 74300 | 4510
4 | B4 | 6370 | 1090 | 88500 | 3760
5 | B5 | 302000 | 38700 | 1.45e+06 | 580000
6 | B6 | 9170 | 922 | 200000 | 6040
7 | {C20 diacid-γGlu}-EKEKEKGEKPRSSCFGKRIDRIG[Orn]YSGLGCPSFRHGSPSSGAPPPS-NH2 (bridge 14-30 via thioacetal) [HOOC-(CH2)18-CO-(γGlu)-EKEKEKGEKPRSS[CFGKRIDRIG-Orn-YSGLGC]PSFRHGSPSSGAPPPS-NH2] | 104000 | 497 | 6.52e+06 | 186000
8 | B7 | 12800 | 493 | 623000 | 17900
9 | B8 | 10000 | 542 | 696000 | 25400
10 | B9 | 5170 | 736 | 80200 | 4850
11 | B10 | 6380 | 490 | 150000 | 3770
12 | B11 | 9550 | 902 | 147000 | 3990
13 | {C20 diacid-γGlu}-EKEKEKGEKPRSSCFGKRIDRIGHQSGLGCPSFRHGSGSPSSGAPPPSG-NH2 (bridge 14-30 via thioacetal) [HOOC-(CH2)18-CO-(γGlu)-EKEKEKGEKPRSS[CFGKRIDRIGHQSGLGC]PSFRHGSGSPSSGAPPPSG-NH2] | 37600 | 392 | 816000 | 2160
14 | {C20 diacid-γGlu}-EKEKEKGEKPRSSCFGKRIDRIGHQSGLGCPSFRHGSPSSGAPPPS-NH2 (bridge 14-30 via thioacetal) [HOOC-(CH2)18-CO-(γGlu)-EKEKEKGEKPRSS[CFGKRIDRIGHQSGLGC]PSFRHGSPSSGAPPPS-NH2] | 41500 | 703 | 341000 | 2020
15 | {C20 diacid}-[γGlu]EKEKEKGEK[βAla]RSSCFGKRIDRIGHYSGLGCPSFRHGSPSSGAPPPS-NH2 (bridge 15-31 via thioacetal) [HOOC-(CH2)18-CO-(γGlu)-EKEKEKGEK-βAla-RSS[CFGKRIDRIGHYSGLGC]PSFRHGSPSSGAPPPS-NH2] | 23700 | 566 | 498000 | 2010
16 | {C20 diacid-γGlu}-EKEKEKGEKPRSSCFGG[Dap]IDRIGHYSGLGCPSFRHGSPSSGAPPPS-NH2 (bridge 14-30 via thioacetal) [HOOC-(CH2)18-CO-(γGlu)-EKEKEKGEKPRSS[CFGG-Dap-IDRIGHYSGLGC]PSFRHGSPSSGAPPPS-NH2] | 1.41e+06 | 5350 | 3.8e+06 | 71700
17 | B12 | 2210 | 580 | 89100 | 5320
18 | B13 | 2830 | 726 | 100000 | 5650
19 | B14 | 6020 | 621 | 149000 | 6360
